From patent US5677146

Legend:
[1] = target: Leukocyte Elastase, purified at Novo Nordisk A/S using the method of Baugh and Travis
[2] = target: T1, Cathepsin G, purified at Novo Nordisk A/S using the method of Baugh and Travis
T1 sequence (P08311 21-244, species assumed, looked up): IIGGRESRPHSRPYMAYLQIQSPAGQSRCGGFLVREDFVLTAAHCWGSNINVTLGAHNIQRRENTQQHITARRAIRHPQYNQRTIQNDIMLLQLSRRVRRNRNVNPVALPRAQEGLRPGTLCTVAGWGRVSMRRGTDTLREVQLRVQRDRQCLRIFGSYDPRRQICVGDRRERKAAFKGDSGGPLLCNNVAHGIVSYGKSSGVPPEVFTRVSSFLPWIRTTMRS

[3] = target: plasma kallikrein (3 nM), Kabi
[4] = target: Urokinase (5 nM), Serono, Freigung, Germany
[5] = target: Trypsin (8 nM), Novo Nordisk A/S, Bagsvaerd, Denmark
[6] = target: Chymotrypsin (2.5 nM), Novo Nordisk A/S
[7] = target: glandular kallikrein (1 U/ml), Sigma, St Louis, MO

% Inhibition [1]: 6%
% Inhibition [2]: 16%
% Inhibition [3]: 71%
% Inhibition [4]: 0%
% Inhibition (Plasmin (10 nM), Kabi): 90%
% Inhibition [5]: 99.7%
% Inhibition [6]: 94%
% Inhibition [7]: 82%
B1: Kunitz-type inhibitor domain of the amyloid protein precursor (protein)
chain: EVCSEQAETGPCRAMISRWYFDVTEGKCAPFFYGGCGGNRNNFDTEEYCMAVCGSA
